# Columns and labels:
# Test in all cases: ITC
# [1] = target: T1, NRKRISN peptide (spike RBD) (SARS-CoV-2, UniProt P0DTC2)
# T1 chain: NRKRISN
# [2] = target: T2, HRFYRLAN peptide (RNA dependent RNA polymerase) (SARS-CoV-2, UniProt P0DTD1)
# T2 chain: HRFYRLAN
# [3] = target: T3, YRLFRK peptide (spike RBD) (SARS-CoV-2, UniProt P0DTC2)
# T3 chain: YRLFRK
binder,measurement,setting,value
GGTTGGTGTGGTTGG (structured_DNA) [BC 007],binding result,[1],no binding
same,Kd,[2],54.7 ± 0.6 µM
same,Kd,[3],86.7 ± 1.2 µM

# Source: article PMC7605794
